{"source": "patent US20080233103", "tested_on": "N-formyl-Met-Ala", "data": [{"substance": "recombinant histidine-tagged Mycobacterium tuberculosis peptide deformylase (mPDF), wild-type construct from pET-mPDF", "values": [{"measurement": "Michalis-Menton constant (Km)", "value": "4.1 ± 0.2", "unit": "mM"}, {"measurement": "catalytic efficiency", "value": "1220 ± 6", "unit": "M⁻¹ s⁻¹"}, {"measurement": "velocity maxima (Vmax)", "value": "13.3±0.7", "unit": "µmoles/min/mg protein"}]}]}
